Measurements as given in paper PMC4108065, “Inflammation and pancreatic cancer: molecular and functional interactions between S100A8, S100A9, NT-S100A8 and TGFβ1” (Cell Communication and Signaling : CCS, 2014).

Test: S100A8 proteolysis assay in Capan1 conditioned media (MALDI-TOF/MS)
Format: in vitro ADME, human
Conditions: 3 μM S100A8, Capan1 conditioned medium, 24 hours at 37°C, MALDI-TOF/MS low molecular weight spectra
Experimental: To obtain BxPC3 and Capan1 conditioned media (CM), 400,000 cells were cultured (75 cm^2 flasks) for 96 hours in RPMI supplemented with 1% FCS and 0.1% gentamycin. In parallel, Ukrain (Nowicky Pharma, Wien, Austria) treated Capan1 CM were obtained as above, the difference being that Ukrain was added 24 hours after cells had been seeded at the final concentration of 5 μM. Complete culture media maintained in a cell culture incubator for 96 hours (negative control), Capan1 and Ukrain-treated Capan1 CM were centrifuged at 1,500 rpm for 10 min, and then immediately mixed with 3 μM S100A8 or 2.5 μM S100A9 (ProSpec-Tany TechnoGene, Ness Ziona, Israel) and maintained at 37°C overnight before MALDI-TOF/MS analyses. Complete culture media, BxPC3 and Capan1 CM, treated as described above, were incubated at 37°C with 200 μM of the S100A8 1–19 N-terminal aminoacid sequence (NT-S100A8) (Primm, Milano, Italy) for 1, 2, 3, 4, 5, 6, 12 and 24 hours before MALDI-TOF/MS analyses. At least three independent sets of experiments were performed for both assays.
Cell culture media were first desalted and purified by ZipTip C18 pipette tips, following the procedure described in the ZipTip user’s guide. […]

Question: With “S100A8: inflammatory calcium binding protein S100A8 (ProSpec-Tany TechnoGene)” as the substance, how does the “fragmentation of S100A8 in conditioned medium” value read?
Answer: a new peptide was found at 2280 m/z
